Starred links: 1 amine or outer side, 2 acyl side, 3 side chain; linkers in the order of their positions; H or OH if unused. Non-standard residues stand in square brackets, D forms with d. Primed or numbered codes have the meaning given here. No end group written: not given here. *: point of attachment. Tyr(Me) = O-methyltyrosine, COc1ccc(C[C@H](N[*:1])C(=O)[*:2])cc1; Asn(Me)″ = Nω-methylasparagine, CNC(=O)C[C@H](N[*:1])C(=O)[*:2]; Cyclohexanecarbonyl = O=C(C1CCCCC1)*; Hyp = O=C(O)[C@@H]1C[C@@H](O)CN1; Cha = N[C@@H](CC1CCCCC1)C(=O)O; Aib = CC(C)(N)C(=O)O; Aoc = NCCCCCCCC(=O)O; GABA = NCCCC(=O)O
What was measured:
human Y2 receptor [1] = biological target: T1, human Y2 receptor (Homo sapiens, UniProt P49146); assay: Human Y2 Receptor G Protein Binding Assay (GBA), [35S]GTPγS; format: biochemical; settings: EC50 of test compound/EC50 of PYY(3-36) (PYY3-36 taken as 1), hY2R/CHO membrane fraction
T1 construct: expressed in transfected cells; membrane fraction
T1 sequence (P49146 1-381): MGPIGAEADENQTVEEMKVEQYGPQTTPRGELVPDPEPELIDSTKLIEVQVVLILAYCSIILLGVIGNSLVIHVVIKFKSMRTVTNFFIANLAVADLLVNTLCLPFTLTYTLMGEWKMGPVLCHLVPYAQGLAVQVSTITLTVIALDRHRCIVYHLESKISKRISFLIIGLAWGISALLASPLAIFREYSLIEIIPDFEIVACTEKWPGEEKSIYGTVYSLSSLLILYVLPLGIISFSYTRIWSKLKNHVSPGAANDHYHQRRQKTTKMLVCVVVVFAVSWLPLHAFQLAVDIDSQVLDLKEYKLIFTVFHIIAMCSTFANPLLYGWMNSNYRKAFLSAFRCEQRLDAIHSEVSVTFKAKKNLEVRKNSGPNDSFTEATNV
How it was run: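 Agonism measured as [35S]GTPγS binding, read by GF/C filtration and scintillation counting after 120 min at room temperature, using human Y2 membranes at 1 μg protein/mL in pH 7.4 Tris/MgCl2/NaCl/GDP buffer. Compound serially diluted 100 μM–1 nM; EC50 normalized to PYY(3-36) (ratio = compound/PYY).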

human Y2 receptor [2] = biological target: T1, human Y2 receptor; assay: Receptor Binding Assay (RBA) for Human Y2, [125I]-PYY displacement on hY2R/CHO membrane fraction; settings: IC50 of test compound/IC50 of PYY(3-36) (PYY(3-36) taken as 1)
How it was run: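 hY2R stably expressed in CHO/dhfr− cells; membrane fraction prepared from cells disrupted in 10 mM NaHCO3, 5 mM EDTA buffer with protease inhibitors. Binding read as displacement of [125I]-PYY.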

Substance	GBA EC50 Ratio (human Y2 receptor [1])	RBA IC50 Ratio (human Y2 receptor [2])
Ac-[D-Pro24, Tyr(Me)26, Cha27,36, Aib28,31, Lys30]-PYY(23-36) (Ac-S[dP]R[Tyr(Me)][Cha][Aib]NK[Aib]TRQR[Cha]-NH2; SMILES COc1ccc(C[C@H](NC(=O)[C@H](CCCNC(=N)N)NC(=O)[C@H]2CCCN2C(=O)[C@H](CO)NC(C)=O)C(=O)N[C@@H](CC2CCCCC2)C(=O)NC(C)(C)C(=O)N[C@@H](CC(N)=O)C(=O)N[C@@H](CCCCN)C(=O)NC(C)(C)C(=O)N[C@H](C(=O)N[C@@H](CCCNC(=N)N)C(=O)N[C@@H](CCC(N)=O)C(=O)N[C@@H](CCCNC(=N)N)C(=O)N[C@@H](CC2CCCCC2)C(N)=O)[C@@H](C)O)cc1) [compound No. 348]	1.4	0.88
Ac-[Hyp23, D-Pro24, Cha27,28,36, Aib31]-PYY(23-36) (Ac-[Hyp][dP]RH[Cha][Cha]NL[Aib]TRQR[Cha]-NH2; SMILES CC(=O)N1C[C@H](O)C[C@H]1C(=O)N1CCC[C@@H]1C(=O)N[C@@H](CCCNC(=N)N)C(=O)N[C@@H](Cc1c[nH]cn1)C(=O)N[C@@H](CC1CCCCC1)C(=O)N[C@@H](CC1CCCCC1)C(=O)N[C@@H](CC(N)=O)C(=O)N[C@@H](CC(C)C)C(=O)NC(C)(C)C(=O)N[C@H](C(=O)N[C@@H](CCCNC(=N)N)C(=O)N[C@@H](CCC(N)=O)C(=O)N[C@@H](CCCNC(=N)N)C(=O)N[C@@H](CC1CCCCC1)C(N)=O)[C@@H](C)O) [compound No. 126]	5.0	7.3

The remaining lines, values ahead:

GBA EC50 Ratio (human Y2 receptor [1])	RBA IC50 Ratio (human Y2 receptor [2])	Substance
3.0	5.8	Ac-[GABA24, Cha27,28,36, Aib31]-PYY(23-36) (Ac-S[GABA]RH[Cha][Cha]NL[Aib]TRQR[Cha]-NH2; SMILES CC(=O)N[C@@H](CO)C(=O)NCCCC(=O)N[C@@H](CCCNC(=N)N)C(=O)N[C@@H](Cc1c[nH]cn1)C(=O)N[C@@H](CC1CCCCC1)C(=O)N[C@@H](CC1CCCCC1)C(=O)N[C@@H](CC(N)=O)C(=O)N[C@@H](CC(C)C)C(=O)NC(C)(C)C(=O)N[C@H](C(=O)N[C@@H](CCCNC(=N)N)C(=O)N[C@@H](CCC(N)=O)C(=O)N[C@@H](CCCNC(=N)N)C(=O)N[C@@H](CC1CCCCC1)C(N)=O)[C@@H](C)O) [compound No. 156]
37	76	Cyclohexanecarbonyl-[Cha27,36, Ile28,31, Asn(Me)29]-PYY(25-36) (Cyclohexanecarbonyl-RH[Cha]I[Asn(Me)″]LITRQR[Cha]-NH2; SMILES CC[C@H](C)[C@H](NC(=O)[C@H](CC1CCCCC1)NC(=O)[C@H](Cc1c[nH]cn1)NC(=O)[C@H](CCCNC(=N)N)NC(=O)C1CCCCC1)C(=O)N[C@@H](CC(=O)NC)C(=O)N[C@@H](CC(C)C)C(=O)N[C@H](C(=O)N[C@H](C(=O)N[C@@H](CCCNC(=N)N)C(=O)N[C@@H](CCC(N)=O)C(=O)N[C@@H](CCCNC(=N)N)C(=O)N[C@@H](CC1CCCCC1)C(N)=O)[C@@H](C)O)[C@@H](C)CC) [compound No. 75]
1.9	2.1	[Aoc(8)23, D-Pro24, Cha27,28,36, Aib31]-PYY(23-36) ([Aoc][dP]RH[Cha][Cha]NL[Aib]TRQR[Cha]-NH2; N-terminus assumed; SMILES CC(C)C[C@H](NC(=O)[C@H](CC(N)=O)NC(=O)[C@H](CC1CCCCC1)NC(=O)[C@H](CC1CCCCC1)NC(=O)[C@H](Cc1c[nH]cn1)NC(=O)[C@H](CCCNC(=N)N)NC(=O)[C@H]1CCCN1C(=O)CCCCCCCN)C(=O)NC(C)(C)C(=O)N[C@H](C(=O)N[C@@H](CCCNC(=N)N)C(=O)N[C@@H](CCC(N)=O)C(=O)N[C@@H](CCCNC(=N)N)C(=O)N[C@@H](CC1CCCCC1)C(N)=O)[C@@H](C)O) [compound No. 117]
